{"source": "paper PMC4734665", "data": [{"target": "WRKY6-His (UniProt Q9C519)", "sequence (Q9C519 whole entry)": "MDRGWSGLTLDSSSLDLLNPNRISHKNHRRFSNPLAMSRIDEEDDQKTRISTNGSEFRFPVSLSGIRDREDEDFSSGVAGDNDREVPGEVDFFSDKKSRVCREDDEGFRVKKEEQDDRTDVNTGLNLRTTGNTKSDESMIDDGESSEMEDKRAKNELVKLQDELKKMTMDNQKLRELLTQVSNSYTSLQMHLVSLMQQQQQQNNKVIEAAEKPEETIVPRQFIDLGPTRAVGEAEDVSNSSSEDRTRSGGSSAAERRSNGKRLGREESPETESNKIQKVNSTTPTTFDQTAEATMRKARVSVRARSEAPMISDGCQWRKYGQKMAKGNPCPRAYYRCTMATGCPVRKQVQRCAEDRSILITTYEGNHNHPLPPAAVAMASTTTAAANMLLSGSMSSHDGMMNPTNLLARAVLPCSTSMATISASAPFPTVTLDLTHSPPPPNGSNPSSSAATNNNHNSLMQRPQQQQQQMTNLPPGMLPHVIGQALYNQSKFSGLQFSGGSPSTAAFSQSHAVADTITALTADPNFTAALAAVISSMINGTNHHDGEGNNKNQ", "experiment": "EMSA", "conditions": "EMSA: 20 uL, 0.5 ug protein, 1 uL of 50 ug/mL biotin probe, 2 uL 10x buffer (1x = 10 mM Tris, 50 mM KCl, 1 mM DTT, pH 7.5), 1 uL 1% NP-40, 0.5 uL 1 mg/mL …", "values": [{"sequence": "GATAAGATCGTAAGCTATCCACATCACTTGTTAATTGTCCTCAAACCATATTATATAATGCAAACAATTTATGGCGTTAAATCCTTACGTATTTATTCTCTATAAGAGTAAAACACACACACTGAAGGCAACTGATTTAATTGGATTTCTATACGTCAGTAGAAATACTTGTTATGATGTCGGTCGCTCGTTGGCTAAGTATTTCTTATAAATATATAAGACATATTTAAAATCTTTTTACATTACATACACCCACTTATGAGAAAC (double strand) [RAV1 promoter P2 mutant]", "binding": "no binding"}, {"sequence": "GATAAGATCGTAAGCTATCCACATCACTTGTTAATTGTCCTCAAACCATATTATATAATGCAAACAATTTATGGCGTTAAATCCTTACGTATTTATTCTCTATAAGAGTAAAACACACACACTGAAGGCAACTGATTTAATTGGATTTCTATTGACCAGTAGAAATACTTGTTATGATGTCGGTCGCTCGTTGGCTAAGTATTTCTTATAAATATATAAGACATATTTAAAATCTTTTTACATTACATACACCCACTTATGAGAAAC (double strand) [RAV1 promoter P2]", "binding": "binds"}, {"sequence": "GGAAAATTCCTATTTTCCCGATTACATTTTAACACATCAAAATAGGTACTGTGTTTTATAAATCTGAACAAACAATTAGTAATGTTCATACTTTAACATTTAAAAAATTCAAATTATCTACCTCAACTCTTACTTTTGTACATAATTATGAGTCAACGTTAGTTATGGTAATTAACAGTAACGGTTGTTGAATCAGCTAACACTTGTACGTCGAGATGGCATGTTCTTCAAACCAAAT (double strand) [ABI3 promoter fragment]", "binding": "binds"}]}]}
